{"source": "patent US20050058643A1", "about": "(APITOPE TECHNOLOGY BRISTOL, published 2005)", "molecular_target": "T1, HLA:DR2 (DRB1*1501) MHC Class II molecule (human)", "T1 construct": "whole, on cells", "assay": "conclusion drawn from presentation and tolerance experiments (fixed HLA-DR2+ APC; HLA:DR2 transgenic mice); no direct binding assay", "data": [{"binder": "GFKGVDAQGTLSKIF (also called APITOPE-MS-6)", "note": "[MBP peptide 140-154]", "values": [{"measurement": "binding result", "value": "binds"}]}]}
